Values belong to the molecule of their own block, whether it stands above or below them.
Columns and labels:
SlAAAD = molecular target: T1, SlAAAD (Solanum lycopersicum, UniProt Q1KSC6); experiment: HPLC-EC decarboxylation assay; format: biochemical; conditions: 5 mM substrate, 20 mM HEPES pH 7.5, 25°C, 10 min
T1 construct: gene AADC1A; recombinant from bacterial expression plasmid pTYB12 (IMPACT-CN)
T1 sequence (Q1KSC6 1-471): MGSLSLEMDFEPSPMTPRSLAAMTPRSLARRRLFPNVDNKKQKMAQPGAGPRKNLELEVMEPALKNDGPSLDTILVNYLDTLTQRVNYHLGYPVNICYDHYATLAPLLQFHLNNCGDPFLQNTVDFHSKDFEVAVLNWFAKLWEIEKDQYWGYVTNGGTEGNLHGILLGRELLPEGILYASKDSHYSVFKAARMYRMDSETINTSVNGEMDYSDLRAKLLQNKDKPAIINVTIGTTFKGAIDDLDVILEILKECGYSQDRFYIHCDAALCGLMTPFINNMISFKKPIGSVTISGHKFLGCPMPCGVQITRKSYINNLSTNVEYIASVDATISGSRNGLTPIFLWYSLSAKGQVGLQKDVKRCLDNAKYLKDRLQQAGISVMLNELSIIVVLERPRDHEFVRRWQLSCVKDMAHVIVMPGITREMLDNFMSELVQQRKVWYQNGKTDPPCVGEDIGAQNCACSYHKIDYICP

AtSDC = molecular target: T2, AtSDC (Arabidopsis thaliana, UniProt Q9MA74); experiment: HPLC-EC decarboxylation assay; format: biochemical; conditions: 5 mM substrate, 20 mM HEPES pH 7.5, 25°C, 10 min
T2 construct: gene SDC; recombinant from bacterial expression plasmid pTYB12 (IMPACT-CN)
T2 sequence (Q9MA74 1-482): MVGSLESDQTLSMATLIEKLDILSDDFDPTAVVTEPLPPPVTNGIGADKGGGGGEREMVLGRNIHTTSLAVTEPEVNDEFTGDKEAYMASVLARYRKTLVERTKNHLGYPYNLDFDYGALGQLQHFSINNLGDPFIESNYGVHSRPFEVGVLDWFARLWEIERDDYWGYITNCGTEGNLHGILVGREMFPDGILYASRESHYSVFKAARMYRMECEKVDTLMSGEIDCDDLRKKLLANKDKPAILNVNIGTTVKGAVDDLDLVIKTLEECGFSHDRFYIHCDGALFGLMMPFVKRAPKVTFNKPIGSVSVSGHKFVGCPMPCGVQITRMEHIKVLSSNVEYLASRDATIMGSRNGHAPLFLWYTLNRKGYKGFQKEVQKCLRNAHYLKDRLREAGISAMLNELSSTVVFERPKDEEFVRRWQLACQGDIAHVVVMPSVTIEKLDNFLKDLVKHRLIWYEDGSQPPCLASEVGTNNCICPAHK

purified protein = substrate: CC(C)C[C@H](N)C(=O)O; experiment: purified protein; conditions: 20 mM HEPES pH 7.5, 25°C, 5 min, hyperbolic regression
[1] = substrate: N[C@@H](Cc1c[nH]c2ccccc12)C(=O)O; experiment: peroxide assay (Pierce Quantitative Peroxide Assay Kit); format: biochemical, Cicer arietinum; conditions: 20 mM HEPES pH 7.5, 25°C, 5 min, hyperbolic regression
Description: (§1) peroxide assay (Pierce Quantitative Peroxide Assay Kit) on CaAAS

[2] = substrate: CSCC[C@H](N)C(=O)O; experiment: as above; format: biochemical, Cicer arietinum; conditions: 20 mM HEPES pH 7.5, 25°C, 5 min, hyperbolic regression
Description: as §1

[3] = substrate: N[C@@H](Cc1ccccc1)C(=O)O; experiment: as above; format: biochemical, Cicer arietinum; conditions: 20 mM HEPES pH 7.5, 25°C, 5 min, hyperbolic regression
Description: as §1

[4] = substrate: N[C@@H](Cc1c[nH]c2ccccc12)C(=O)O; experiment: as above; format: biochemical, Medicago truncatula; conditions: 20 mM HEPES pH 7.5, 25°C, 5 min, hyperbolic regression
Description: (§2) peroxide assay (Pierce Quantitative Peroxide Assay Kit) on MtAAS

[5] = substrate: CSCC[C@H](N)C(=O)O; experiment: as above; format: biochemical, Medicago truncatula; conditions: 20 mM HEPES pH 7.5, 25°C, 5 min, hyperbolic regression
Description: as §2

[6] = substrate: N[C@@H](Cc1ccccc1)C(=O)O; experiment: as above; format: biochemical, Medicago truncatula; conditions: 20 mM HEPES pH 7.5, 25°C, 5 min, hyperbolic regression
Description: as §2

Molecule: N[C@@H](Cc1ccc(O)cc1)C(=O)O [tyrosine]
HPLC-EC decarboxylation assay (SlAAAD): SlAAAD decarboxylation assay demonstrated activity towards tyrosine, dopa, phenylalanine and tryptophan

Molecule: N[C@@H](Cc1ccccc1)C(=O)O [phenylalanine]
HPLC-EC decarboxylation assay (SlAAAD): SlAAAD decarboxylation assay demonstrated activity towards tyrosine, dopa, phenylalanine and tryptophan

HPLC-EC decarboxylation assay (AtSDC): AtSDC only has activity towards serine
Molecule: N[C@@H](CO)C(=O)O [serine]

B1: CaAAS (Cicer arietinum) (protein)
chain: MGSLEGNNMLSMVVSNAKLAREEERQENINITNTNLTINQCIGETDANLKAIITHYVDTLTYSSLRNLGYPTNQDFNYDALASLFHFHLNNAGDPFVGSSFSLNSTKFEVGVLDWFAELWEIEKSDYWGYVTTGGTEGNLHGILVGREQFPDGILYTSQDSHYSIFKIARMYRMECVKVGSLLSGEIDCVELEASLLAHKDKPAIINLNIGTTMKGGIDDLDIVIQTLKKCGFTRDRFYIHCDGALFGIMLPFIKQAQRISFKKPIDSVTISGHKFLGCPSPCGVVITRLKYINELSRDVEIIASRDATITGSRCGHAPILLWYALKKKGLIGLKNEVHECIINARYLLDQLRDAGIGAMLNEFSNIVVFEKPLDDNFTRRWNLATKGNIAHVVVLMHVTKEMLDTFVREFIQKRSIWYKHGHFQPLCIANHVGSTNCVCSIHKLS
notes: recombinant from bacterial expression plasmid pTYB12 (IMPACT-CN)
Km (purified protein): 4600 ± 400 µM
kcat (purified protein): 0.467 s⁻¹
kcat/Km (purified protein): 100 M⁻¹ s⁻¹
Km [1]: 2800 ± 700 µM
kcat [1]: 0.187 ± 0.016 s⁻¹
kcat/Km [1]: 70 ± 100 M⁻¹ s⁻¹
Km [2]: 1620 ± 200 µM
kcat [2]: 0.351 ± 0.012 s⁻¹
kcat/Km [2]: 220 ± 10 M⁻¹ s⁻¹
Km [3]: 90 ± 10 µM
kcat [3]: 0.595 ± 0.009 s⁻¹
kcat/Km [3]: 6600 ± 650 M⁻¹ s⁻¹

B2: MtAAS (Medicago truncatula) (protein)
chain: MAMTFIPDAELLPTVVVNAKLSREEKHDEENIIGLTNLDVTKSIGETDANLDAIIAHYAQTITKYNMRNLGYPTNQDFNYEALAPLLQFHLNNAGDPFLGSSFSLNSMAFEVSVLDWFAKLWEIEKNEYWGYVTTGGTEGNLHGILAGREQLPDGILYTSQDSHYSIAKIAKMYRMKCVKVDSLLSGEIDCVQLEASLLAHKDKPAIINLNIGTTLKGGIDDLDLVIQTLNKCGFTRDRFYIHCDGALFGIMLPFIKQAPRISFKKPIDSVTISGHKFLGCPSPCGVLITRLKYMNALSRDVDIIASRDATITGSRCGHAPIFLWYALKKRGLIGLENEVHECIMKAHYLLNLLRDAGIGAMLNKFSNIVVFERPLDDHFTRRWNLASNKNTAHVVVLKHVTVEMLDSFVREFTEKQSIWYKDEQFQPPCIANDVGSRNCACSIHNLSRNC
notes: as for B1
Km [4]: 1700 ± 300 µM
kcat [4]: 0.125 ± 0.008 s⁻¹
kcat/Km [4]: 70 ± 10 M⁻¹ s⁻¹
Km [5]: 1900 ± 200 µM
kcat [5]: 0.144 ± 0.006 s⁻¹
kcat/Km [5]: 80 ± 10 M⁻¹ s⁻¹
Km [6]: 20 ± 10 µM
kcat [6]: 0.358 ± 0.005 s⁻¹
kcat/Km [6]: 17900 ± 2290 M⁻¹ s⁻¹
Km (purified protein): 7600 ± 700 µM
kcat (purified protein): 0.197 s⁻¹
kcat/Km (purified protein): 30 M⁻¹ s⁻¹
